These results are taken from the RNAGym collection of RNA variant scans (doi:10.7554/elife.80360).

First the molecules themselves.
B1: Twister Ribozyme (parent)
chain: AACACUGCCAAUGCCGGUCCCAAGCCCGGAUAAAAGUGGAGGGGGCGG

The variants in this data set derive from B1. Kind of data set: self-cleavage, relative activity (ratio to wild type); higher = more cleavage; co-transcriptional.
As for C15U A40U, the self-cleavage came out at 0.15.
The result for C14A A35G reads 0.718; that for C9G A34C, 0.134; that for A4U G48A, 0.191.
Then G39C A40G, with 0.164; and A1C A33G, with 0.116; and U6G G13C, with 0.078.
The result for C9U U18G reads 0.059.
Take G39C G43A: the self-cleavage came out at 0.103.
Then G41A G45U, with 0.196; and A4C G17A, with 0.0548; and A4G U6G, with 0.074.
The result for U18C G41A reads 0.137.
Then C14G A34G, with 0.182; and A23U G42A, with 0.125; and G29C G38U, with 0.627.
For the variant C8A G17A, the self-cleavage amounted to 0.12.
The result for G44C G47C reads 0.353.
Then A23C G38A, with 0.131; and C21A A35C, with 0.083; and C25A G36U, with 0.0554.
Then A33C G39A, with 0.438.
Consider A34U C46A, for which the self-cleavage was determined as 0.76.
Then G24U G42U, with 0.0953; and A11G A34C, with 0.353.
Then G7C A40G, with 0.0675; and C19G G39A, with 0.104.
For U31A A34U, the self-cleavage is 1.07.
On to A10G, for which the self-cleavage was 1.02.
The result for G41U G44A reads 0.403; that for A1G G43A, 0.176.
The result for G13A C14A reads 0.685; that for A23U A30C, 0.115.
Take A1C C27U: the self-cleavage amounted to 0.138.
In the case of A33G A34G, the self-cleavage turned out to be 0.253.
As for G7A C27U, the self-cleavage came to 0.11.
For G29A U37A, the self-cleavage was 0.569.
For the variant G39C G44C, the self-cleavage turned out to be 0.167.
The result for G43C G47U reads 0.13; that for C19A C46A, 0.197.
The result for C20G A23G reads 0.0348; that for G13C G42C, 0.166.
Then A11G C20G, with 0.197; and A23C A30U, with 0.264.
In the case of A11C G42C, the self-cleavage was 0.419.
The result for C26G C27G reads 0.106; that for C8U A35C, 0.547; that for C8U A35U, 0.756.
As for C5A C27G, the self-cleavage was found to be 0.0807.
In the case of U31C G43C, the self-cleavage came out at 0.194.
In the case of A1C G38U, the self-cleavage turned out to be 0.22.
The result for G16U G36C reads 0.156; that for A23U C25U, 0.116.
Consider A30G A40G, for which the self-cleavage came to 0.187.
Then C5A A11C, with 0.169; and C21G A32C, with 0.0636.
Then G28U U37C, with 0.431; and U12G A35C, with 0.89.
A33C G47C: the self-cleavage turned out to be 0.274.
Then A4U A35U, with 0.196; and U18G C20A, with 0.057; and C14G U31A, with 0.153.
The result for A1U A34C reads 0.092; that for A35C G45C, 0.472.
Then C3A A4U, with 0.0689; and C9A G42A, with 0.149; and U6A C25U, with 0.718.
For G29C G45A, the self-cleavage came out at 0.667.
Turning to G13A G47C, the self-cleavage came out at 0.272.
On to G17A A35C, for which the self-cleavage turned out to be 0.637.
The result for U31A U37A reads 0.721; that for C3A C27U, 0.183; that for A22U G43A, 0.136.
As for A32G G42U, the self-cleavage worked out at 0.357.
The result for A11U U31G reads 0.893; that for G16C G44U, 0.81.
The result for A10G A30G reads 0.897.
The result for C8A A22G reads 0.107; that for A1C A34U, 0.176; that for C8G A11U, 0.691.
Take C8G A11C: the self-cleavage came out at 0.55.
On to A10G A35G, for which the self-cleavage amounted to 0.92.
On to A23U G38A, for which the self-cleavage amounted to 0.342.
The result for U31A A40G reads 0.0937; that for G13A G24A, 0.0967.
With U6G A11G, the self-cleavage turned out to be 0.52.
Take A1G G47U: the self-cleavage was determined as 0.278.
The result for C26A C27U reads 0.0741; that for A22U G36A, 0.179; that for G16A G47C, 0.351.
The result for U18C G48U reads 0.496.
Then G28C G41U, with 0.332.
As to G38A A40G, the self-cleavage was determined as 0.131.
The result for C20A A32U reads 0.186; that for C8A C14U, 0.597; that for A10U G13U, 0.489.
The result for G7C A22G reads 0.0331; that for A35G G41C, 0.143; that for A4U A32U, 0.0867.
Then A4U A32G, with 0.0833; and G24C A32C, with 0.118; and U18A G43A, with 0.147.
With G16U C19U, the self-cleavage stood at 0.697.
Then G7A C9A, with 0.0651; and C3U C5G, with 0.105.
The result for C14A C20A reads 0.165.
Then A30G U31A, with 0.744.
For A10G G28U, the self-cleavage came out at 1.04.
Turning to G29C G47A, the self-cleavage was found to be 0.397.
The result for A10U A34G reads 0.703; that for G7C A23C, 0.0613; that for A2G G13C, 0.0608.
Consider A2G G13A, for which the self-cleavage came to 0.131.
As for U18A C46A, the self-cleavage turned out to be 0.252.
Then A2U A22C, with 0.311; and A10C A34U, with 0.951.
For the variant U12A A22C, the self-cleavage stood at 1.08.
The result for G13A C21G reads 0.105.
The result for C5G G13U reads 0.0419; that for A1C A23C, 0.12; that for C5G G44C, 0.678.
Then U12G G41C, with 0.315; and C14U C19A, with 0.429; and G7A G48U, with 0.381.
Take U12A U18A: the self-cleavage came to 0.643.
The result for G16C C26G reads 0.0968; that for A32G G43C, 0.0899; that for C15U G36C, 0.204.
The result for U37C G45C reads 0.26.
Take A23G G41U: the self-cleavage was determined as 0.0995.
Then G28U G45U, with 0.375; and U18A C25U, with 0.0861; and A30C G38C, with 0.732.
Consider G7C C14A, for which the self-cleavage amounted to 0.0617.
Consider C25A G42U, for which the self-cleavage turned out to be 0.0765.
Then A1G A32C, with 0.497; and A23C U31C, with 0.247.
As to U18G A32G, the self-cleavage came to 0.0643.
Regarding U6A A35G, the self-cleavage was 0.807.
The result for G17A G29U reads 0.336; that for C5U C27A, 0.21; that for C19U G39C, 0.0962.
The result for G38U A40U reads 0.116; that for A34C C46A, 0.142; that for G16U C25U, 0.809.
A11G C15G: the self-cleavage amounted to 0.0492.
Then A23C G41A, with 0.138; and A35U A40G, with 0.133; and C5U G47C, with 0.315.
Then C5A U12G, with 0.42.
Then C46A G47U, with 0.832; and C19G U37C, with 0.138.
As for G13U G44U, the self-cleavage is 0.428.
Then G17A U18G, with 0.123; and G38C G42U, with 0.183; and G16U C46U, with 1.02.
For A10C C15G, the self-cleavage worked out at 0.0331.
For U6C G16U, the self-cleavage was determined as 0.371.
Then C3A U12A, with 0.0973; and U12G C46A, with 0.706.
The result for A2G C25A reads 0.127; that for A10U G29A, 1.08.
Regarding U6G C8U, the self-cleavage was determined as 0.16.
The result for G17A C21U reads 0.0984; that for G7A G24A, 0.0655; that for G43A C46A, 0.334.
Then U18G U37C, with 0.0884.
